Experimental data taken from patent US20250049896A1 (Regeneron, published 2025).
Residue numbers refer to the chain shown, from its start.

B1: 12844B (antibody, human IgG1, kappa, V domains shown)
VH: EVQLVESGGSVVRPGGSLRLSCEASGFTFDDYGMSWVRQDPGKGLEWVSGINWNGDRTNYADSVKGRFIISRDNAKNSVYLQMNSLRAEDSALYHCARDQGLGVAATLDYWGQGTLVTVSS
VL: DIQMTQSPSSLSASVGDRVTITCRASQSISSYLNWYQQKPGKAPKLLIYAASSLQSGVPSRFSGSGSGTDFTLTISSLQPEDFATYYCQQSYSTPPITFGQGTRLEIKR
notes: Tested as bivalent human IgG1 from CHO primary supernatant
B2: 12801B scFv (VH-VK) (scFv)
chain: EVQLLESGGALVQPGGSLRLSCAASGFTFTSYAMHWVRQAPGKGLEWVSSIRGSGGGTYSADSVKGRFTISRDNSRDTLYLQMNSVRAEDTAVYYCARSHDYGAFDFFDYWGQGTLVTVSSDIQMTQSPSSLSASVGDRVTITCRASQGIRTDLGWYQQKPGKAPKRLIYAASSLQSGVPSRFSGSGSGTEFTLTISSLRPEDFATFYCLQYNSYPLTFGGGTKVEIK
B3: 12798B scFv (VH-VK) (scFv)
scFv: EVQLVESGGDLVQPGRSLRLSCAASGFTFDDYAMHWVRQAPGKGLEWVSGISWNSATRVYADSVKGRFTISRDNAKNFLYLQMNSLRSEDTALYHCAKDMDISLGYYGLDVWGQGTTVTVSSGGGGSGGGGSGGGGSEIVMTQSPATLSVSPGERATLSCRASQTVSSNLAWYQQKPGQAPRLLIYGSSSRATGIPARFSGSGSGTEFTLTISSLQSEDFAVYYCQQYNNWPPYTFGQGTKLEIK
notes: CHO supernatant
B4: 12799B Fab (Fab, V domains shown)
VH: QITLKESGPTLVKPTQTLTLTCTFSGFSLSTSGVGVVWIRQPPGKALEWLALIYWNDHKRYSPSLGSRLTITKDTSKNQVVLTMTNMDPVDTATYYCAHYSGSYSYYYYGLDVWGQGTTVTVSS
VL: DIQMTQSPSSVSASVGDRVTITCRASQGIASWLAWYQQKPGKAPELLIYAASSLQGGVPSRFSGSGSGTDFTLTISSLQPEDFAIYYCQQANYFPWTFGQGTKVEIKR
notes: CHO supernatant
B5: 12801B scFv (VK-VH) (scFv)
scFv: DIQMTQSPSSLSASVGDRVTITCRASQGIRTDLGWYQQKPGKAPKRLIYAASSLQSGVPSRFSGSGSGTEFTLTISSLRPEDFATFYCLQYNSYPLTFGGGTKVEIKGGGGSGGGGSGGGGSEVQLLESGGALVQPGGSLRLSCAASGFTFTSYAMHWVRQAPGKGLEWVSSIRGSGGGTYSADSVKGRFTISRDNSRDTLYLQMNSVRAEDTAVYYCARSHDYGAFDFFDYWGQGTLVTVSS
notes: CHO supernatant; Vk-3xG4S-Vh
B6: 12799B scFv (VK-VH) (scFv)
scFv: DIQMTQSPSSVSASVGDRVTITCRASQGIASWLAWYQQKPGKAPELLIYAASSLQGGVPSRFSGSGSGTDFTLTISSLQPEDFAIYYCQQANYFPWTFGQGTKVEIKGGGGSGGGGSGGGGSQITLKESGPTLVKPTQTLTLTCTFSGFSLSTSGVGVVWIRQPPGKALEWLALIYWNDHKRYSPSLGSRLTITKDTSKNQVVLTMTNMDPVDTATYYCAHYSGSYSYYYYGLDVWGQGTTVTVSS
notes: CHO supernatant; Vk-3xG4S-Vh
B7: 12795B scFv (VK-VH) (scFv)
scFv: DIQMTQSPSSLSASVGDRVTITCRASQGIRDHFGWYQQKPGKAPKRLIYAASSLHSGVPSRFSGSGSGTEFTLTISSLQPEDFATYYCLQYDTYPLTFGGGTKVEIKGGGGSGGGGSGGGGSEVQLVESGGGLVQPGGSLRLSCATSGFTFTSYDMKWVRQAPGLGLEWVSAISGSGGNTYYADSVKGRFTISRDNSRNTLYLQMNSLRAEDTAVYYCTRSHDFGAFDYFDYWGQGTLVTVSS
notes: CHO supernatant; Vk-3xG4S-Vh
B8: 12850B (antibody, human IgG1, kappa, V domains shown)
VH: QVQLVQSGAEVKKPGSSVKVSCKASGGTFNTYAITWVRQAPGQGLEWMGGIIPISGIAEYAQKFQGRVTITTDDSSTTAYMELNSLRSEDTAVYYCASWNYALYYFYGMDVWGRGTTVTVSS
VL: not shown
notes: Tested as bivalent human IgG1 from CHO primary supernatant; also called H1H12850B; REGN17516
B9: 12795B Fab (Fab, V domains shown)
VH: EVQLVESGGGLVQPGGSLRLSCATSGFTFTSYDMKWVRQAPGLGLEWVSAISGSGGNTYYADSVKGRFTISRDNSRNTLYLQMNSLRAEDTAVYYCTRSHDFGAFDYFDYWGQGTLVTVSS
VL: DIQMTQSPSSLSASVGDRVTITCRASQGIRDHFGWYQQKPGKAPKRLIYAASSLHSGVPSRFSGSGSGTEFTLTISSLQPEDFATYYCLQYDTYPLTFGGGTKVEIKR
notes: CHO supernatant
B10: 12801B Fab (Fab, V domains shown)
VH: EVQLLESGGALVQPGGSLRLSCAASGFTFTSYAMHWVRQAPGKGLEWVSSIRGSGGGTYSADSVKGRFTISRDNSRDTLYLQMNSVRAEDTAVYYCARSHDYGAFDFFDYWGQGTLVTVSS
VL: B9 VL with D31T, H32D, F33L, H55Q, Q79R, Y86F, D92N, T93S
notes: CHO supernatant
B11: 12798B scFv (VK-VH) (scFv)
scFv: EIVMTQSPATLSVSPGERATLSCRASQTVSSNLAWYQQKPGQAPRLLIYGSSSRATGIPARFSGSGSGTEFTLTISSLQSEDFAVYYCQQYNNWPPYTFGQGTKLEIKGGGGSGGGGSGGGGSEVQLVESGGDLVQPGRSLRLSCAASGFTFDDYAMHWVRQAPGKGLEWVSGISWNSATRVYADSVKGRFTISRDNAKNFLYLQMNSLRSEDTALYHCAKDMDISLGYYGLDVWGQGTTVTVSS
notes: CHO supernatant; Vk-3xG4S-Vh
B12: 12835B (antibody, human IgG1, kappa, V domains shown)
VH: EVQLVESGGGLIQPGGSLRLSCEASGFTFRNYEMNWVRQAPGKGLEWVSYISSSGNMKDYAESVKGRFTISRDNVKNSLQLQMNSLRVEDTAVYYCARDEFPYGMDVWGQGTTVTVSS
VL: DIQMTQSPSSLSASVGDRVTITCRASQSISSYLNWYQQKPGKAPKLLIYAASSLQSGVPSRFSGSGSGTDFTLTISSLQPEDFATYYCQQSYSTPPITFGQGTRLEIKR
notes: Tested as bivalent human IgG1 from CHO primary supernatant; also called H1H12835B; REGN17509
B13: 12843B (antibody, human IgG1, kappa, V domains shown)
VH: EVQLVESGGGLVQPGGSLRLSCAASGFTFNIFEMNWVRQAPGKGLEWISYISSRGTTTYYADSVRGRFTISRDNAKNSLYLQMNSLRAEDTAVYYCARDYEATIPFDFWGQGTLVTVSS
VL: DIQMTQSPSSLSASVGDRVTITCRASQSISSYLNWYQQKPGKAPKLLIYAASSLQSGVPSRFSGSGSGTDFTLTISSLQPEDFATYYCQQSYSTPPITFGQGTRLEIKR
notes: Tested as bivalent human IgG1 from CHO primary supernatant; also called H1H12843B; REGN17512
B14: 12798B Fab (Fab, V domains shown)
VH: EVQLVESGGDLVQPGRSLRLSCAASGFTFDDYAMHWVRQAPGKGLEWVSGISWNSATRVYADSVKGRFTISRDNAKNFLYLQMNSLRSEDTALYHCAKDMDISLGYYGLDVWGQGTTVTVSS
VL: not shown
notes: CHO supernatant
B15: 12848B (antibody, human IgG1, kappa, V domains shown)
VH: EVQLVESGGGLVQPGRSLTLSCAASGFTFDNFGMHWVRQGPGKGLEWVSGLTWNSGVIGYADSVKGRFTISRDNAKNSLYLQMNSLRPEDTALYYCAKDIRNYGPFDYWGQGTLVTVSS
VL: not shown
notes: Tested as bivalent human IgG1 from CHO primary supernatant; also called H1H12848B; REGN17515
B16: 12847B (antibody, human IgG1, kappa, V domains shown)
VH: EVQLVESGGGLVQPGRSLRLSCAASGFTFDDYAMNWVRQAPGKGLEWVSGISWSSGSMDYADSVKGRFTISRDNAKNSLYLQMNSLRTEDTALYYCAKAREVGDYYGMDVWGQGTTVTVSS
VL: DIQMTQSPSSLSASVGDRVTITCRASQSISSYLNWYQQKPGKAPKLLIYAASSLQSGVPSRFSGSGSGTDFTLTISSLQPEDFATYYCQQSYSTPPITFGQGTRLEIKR
notes: Tested as bivalent human IgG1 from CHO primary supernatant; also called H1H12847B; REGN17514
B17: 12795B scFv (VH-VK) (scFv)
chain: EVQLVESGGGLVQPGGSLRLSCATSGFTFTSYDMKWVRQAPGLGLEWVSAISGSGGNTYYADSVKGRFTISRDNSRNTLYLQMNSLRAEDTAVYYCTRSHDFGAFDYFDYWGQGTLVTVSSDIQMTQSPSSLSASVGDRVTITCRASQGIRDHFGWYQQKPGKAPKRLIYAASSLHSGVPSRFSGSGSGTEFTLTISSLQPEDFATYYCLQYDTYPLTFGGGTKVEIK

Assays:
[1] = molecular target: T1, hmm.hTfRC (REGN2431), human transferrin receptor extracellular domain with hexahistidine-myc-myc tag (human, UniProt P02786 89-760); assay: SPR (Biacore), mAb captured on anti-human Fc, 100 nM hTFR-mmh, 25 C
T1 construct: Monomeric recombinant protein, 79210 g/mol; also called hTFR-mmh; His-myc-myc-hTFRC ecto
T1 sequence (P02786 other isoform, or with tags, fused parts or gaps): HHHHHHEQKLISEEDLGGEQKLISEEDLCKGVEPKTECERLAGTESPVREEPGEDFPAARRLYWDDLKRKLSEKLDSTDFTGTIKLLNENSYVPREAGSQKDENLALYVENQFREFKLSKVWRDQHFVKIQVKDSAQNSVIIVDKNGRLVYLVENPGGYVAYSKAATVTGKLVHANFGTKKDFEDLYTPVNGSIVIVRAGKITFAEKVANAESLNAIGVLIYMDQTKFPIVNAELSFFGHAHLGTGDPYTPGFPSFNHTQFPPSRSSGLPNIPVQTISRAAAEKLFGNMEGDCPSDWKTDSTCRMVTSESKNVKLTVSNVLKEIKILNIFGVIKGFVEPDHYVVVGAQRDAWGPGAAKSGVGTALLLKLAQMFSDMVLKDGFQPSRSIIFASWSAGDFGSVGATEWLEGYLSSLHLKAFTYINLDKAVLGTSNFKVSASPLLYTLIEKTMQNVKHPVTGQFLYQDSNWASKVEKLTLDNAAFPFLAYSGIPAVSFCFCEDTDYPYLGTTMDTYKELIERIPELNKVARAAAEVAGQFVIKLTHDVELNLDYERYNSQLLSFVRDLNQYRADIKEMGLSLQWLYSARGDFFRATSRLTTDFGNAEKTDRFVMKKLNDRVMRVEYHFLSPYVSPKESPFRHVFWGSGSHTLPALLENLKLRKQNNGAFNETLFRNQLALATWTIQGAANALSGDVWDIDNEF
Protocol: (§1) Biacore binding kinetics assays were conducted for the interaction of 32 anti-human TfR IgG1 monoclonal antibodies from CHO supernatants with TfR reagents at 25° C.
(§2) Equilibrium dissociation constants (KD) for the interaction of anti-TfR monoclonal antibodies with human and fascicularis monkey TfR ecto domain recombinant proteins were determined using a real-time surface plasmon resonance (SPR) based Biacore S200 biosensor. All binding studies were performed in 10 mM HEPES, 150 mM NaCl, 3 mM EDTA, and 0.05% v/v surfactant Tween-20, pH 7.4 (HBS-EP) running buffer at […]. The Biacore CM5 sensor surface was first derivatized by amine coupling with a monoclonal mouse anti-human Fc antibody (REGN2567) followed by a step to capture anti-TfR monoclonal antibodies in CHO conditioned media. […] The dissociation of TfR bound to anti-TfR monoclonal antibodies was monitored for 3 minutes in HBS-EP running buffer. At the end of each cycle, the anti-TfR monoclonal antibodies capture surface was regenerated using a 12-sec injection of 20 mM H₃PO₄. The association rate (ka) and dissociation rate (kd) were determined by fitting the real-time binding sensorgrams to a 1:1 binding model with mass transport limitation using Scrubber 2.0 c software. The dissociation equilibrium constant (KD) and dissociative half-life (t½) were calculated from the kinetic rate constants as: […]

[2] = molecular target: T2, mf TFRC ecto-mmh (REGN2054), monomeric monkey (cyno) Tfrc ectodomain with C-terminal myc-myc-hexahistidine tag (monkey (cyno), Macaca fascicularis, UniProt H9EXL1 89-760); assay: SPR (Biacore), mAb captured on anti-human Fc, 100 nM mfTfR-mmh, 25 C
T2 construct: range 89-760; also called mfTfR-mmh; mfTFR-mmh
T2 sequence (chain, as listed by the source): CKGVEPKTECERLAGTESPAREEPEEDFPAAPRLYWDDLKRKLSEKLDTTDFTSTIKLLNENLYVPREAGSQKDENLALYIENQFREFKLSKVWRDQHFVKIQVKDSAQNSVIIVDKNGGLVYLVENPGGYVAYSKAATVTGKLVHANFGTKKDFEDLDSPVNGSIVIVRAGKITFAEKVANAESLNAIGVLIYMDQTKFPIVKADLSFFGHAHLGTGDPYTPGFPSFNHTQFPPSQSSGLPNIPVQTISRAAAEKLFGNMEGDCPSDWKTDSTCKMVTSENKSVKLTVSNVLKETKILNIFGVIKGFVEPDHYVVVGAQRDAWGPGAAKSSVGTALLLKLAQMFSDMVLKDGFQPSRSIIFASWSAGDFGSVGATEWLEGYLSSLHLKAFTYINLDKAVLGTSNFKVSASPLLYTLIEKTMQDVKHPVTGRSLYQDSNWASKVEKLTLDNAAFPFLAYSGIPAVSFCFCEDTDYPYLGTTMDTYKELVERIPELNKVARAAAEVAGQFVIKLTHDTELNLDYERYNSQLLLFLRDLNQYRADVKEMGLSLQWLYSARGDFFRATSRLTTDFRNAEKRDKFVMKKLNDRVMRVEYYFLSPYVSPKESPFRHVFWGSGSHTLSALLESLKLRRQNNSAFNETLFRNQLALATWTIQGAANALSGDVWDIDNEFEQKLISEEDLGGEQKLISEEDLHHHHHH
Protocol: as §1, §2

[3] = molecular target: T3, Hmm-hTFRC (REGN2431), monomeric human transferrin receptor ectodomain with N-terminal hexahistidine-myc-myc … (human, UniProt P02786 89-760); assay: blocking ELISA, supernatant; Hmm-hTFRC binding to immobilized human holo-Tf
T3 construct: also called hmm.hTfR(C89-F763); His-myc-myc-hTFRC ecto
T3 sequence (P02786 other isoform, or with tags, fused parts or gaps): as the sequence (P02786 other isoform, or with tags, fused parts or gaps) above
Protocol: In the blocking assay, the anti-human Transferrin goat IgG polyclonal antibody (anti-hTf pAb) was passively absorbed at a concentration of 2 micrograms/mL in PBS on a 96-well microtiter plate overnight at 4° C. […] To the same plate, human holo-Tf was then added at a concentration of 1 micrograms/mL in PBS+0.5% BSA for 2 hours at room temperature. […] After a 1-hour incubation, the mixtures were transferred to the human holo-Tf microtiter plates. […] The plates were developed using TMB substrate solution according to the manufacturer's recommended procedure and absorbance at 450 nm was measured on a Victor™ Multilabel Plate Reader.
The ability of the anti-TfR antibody to block human TFRC binding to human holo-Tf was evaluated using an ELISA-based blocking assay.

Binder | 100 nM Ag Bound (RU) [1] | Kd [1] | koff [1] | kon [1] | t½ [1] | 100 nM Ag Bound (RU) [2] | Kd [2] | koff [2] | kon [2] | t½ [2] | % Blocking [3]
B1 | 946 RU | 0.935 nM | 0.000122 s⁻¹ | 131000 M⁻¹ s⁻¹ | 95 min | 437 RU | 9.68 nM | 0.000735 s⁻¹ | 75900 M⁻¹ s⁻¹ | 15.7 min | 
B2 |  |  |  |  |  |  |  |  |  |  | 37%
B3 |  |  |  |  |  |  |  |  |  |  | 0%
B4 |  |  |  |  |  |  |  |  |  |  | 5%
B5 |  |  |  |  |  |  |  |  |  |  | 27%
B6 |  |  |  |  |  |  |  |  |  |  | 10%
B7 |  |  |  |  |  |  |  |  |  |  | 23%
B8 | 725 RU | 0.215 nM | 1.76e-05 s⁻¹ | 83700 M⁻¹ s⁻¹ | 657 min | 87 RU | 15.5 nM | 0.00157 s⁻¹ | 101000 M⁻¹ s⁻¹ | 7.3 min | 
B9 |  |  |  |  |  |  |  |  |  |  | 44%
B10 |  |  |  |  |  |  |  |  |  |  | 45%
B11 |  |  |  |  |  |  |  |  |  |  | 10%
B12 | 1150 RU | 3.11 nM | 0.000417 s⁻¹ | 134000 M⁻¹ s⁻¹ | 27.7 min | 254 RU | 17.7 nM | 0.00168 s⁻¹ | 95100 M⁻¹ s⁻¹ | 6.9 min | 
B13 | 854 RU | 1.78 nM | 0.000168 s⁻¹ | 94200 M⁻¹ s⁻¹ | 68.8 min | 399 RU | 15 nM | 0.00118 s⁻¹ | 79000 M⁻¹ s⁻¹ | 9.8 min | 
B14 |  |  |  |  |  |  |  |  |  |  | 10%
B15 | 823 RU | 0.494 nM | 4.99e-05 s⁻¹ | 101000 M⁻¹ s⁻¹ | 232 min | 261 RU | 18.2 nM | 0.000962 s⁻¹ | 52900 M⁻¹ s⁻¹ | 12 min | 
B16 | 895 RU | 1.62 nM | 0.000171 s⁻¹ | 105000 M⁻¹ s⁻¹ | 67.6 min | 702 RU | 3.36 nM | 0.000333 s⁻¹ | 99200 M⁻¹ s⁻¹ | 34.7 min | 
B17 |  |  |  |  |  |  |  |  |  |  | 45%
